Assay results published in patent publication US20100226910.

Target: Amyloid beta1-42 standard (from β-Amyloid1-42 ELISA, Human kit, Sigma BE0200), P05067
Sequence (P05067 whole entry, looked up, tested part not stated): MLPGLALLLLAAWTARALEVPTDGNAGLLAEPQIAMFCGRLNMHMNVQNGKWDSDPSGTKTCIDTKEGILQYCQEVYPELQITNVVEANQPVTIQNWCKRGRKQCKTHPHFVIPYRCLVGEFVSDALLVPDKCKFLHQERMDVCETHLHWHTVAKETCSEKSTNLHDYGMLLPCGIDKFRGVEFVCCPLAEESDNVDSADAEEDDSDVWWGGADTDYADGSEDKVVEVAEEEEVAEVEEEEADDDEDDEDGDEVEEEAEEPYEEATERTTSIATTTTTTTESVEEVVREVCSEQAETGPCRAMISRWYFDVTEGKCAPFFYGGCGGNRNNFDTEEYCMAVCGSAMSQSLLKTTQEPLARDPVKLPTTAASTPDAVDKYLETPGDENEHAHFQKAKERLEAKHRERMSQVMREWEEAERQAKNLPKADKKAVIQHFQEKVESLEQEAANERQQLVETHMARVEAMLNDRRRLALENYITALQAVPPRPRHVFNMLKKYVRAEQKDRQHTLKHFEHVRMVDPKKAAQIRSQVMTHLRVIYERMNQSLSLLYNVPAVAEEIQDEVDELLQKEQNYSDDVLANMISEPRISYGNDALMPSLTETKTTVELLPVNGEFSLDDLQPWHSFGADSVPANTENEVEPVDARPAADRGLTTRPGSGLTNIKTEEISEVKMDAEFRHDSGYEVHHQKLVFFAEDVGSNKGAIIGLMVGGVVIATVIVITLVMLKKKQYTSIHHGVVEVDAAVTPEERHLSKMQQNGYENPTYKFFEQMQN

B1: Tissue kallikrein (SEQ ID NO:1) (protein)
chain: IIGGRECEKDSHPWQVAIYHYSSFQCGGVLVDPKWVLTAAHCKNDNYQVWLGRHNLFENEVTAQFFGVTADFPHPGFNLSLLKNHTKADGKDYSHDLMLLRLQSPAKITDAVKVLELPTQEPELGSTCQASGWGSIEPGPDDFEFPDEIQCVELTLLQNTFCADAHPDKVTESMLCAGYLPGGKDTCMGDSGGPLICNGMWQGITSWGHTPCGSANKPSIYTKLIFYLDWINDTITENP
% Cleavage (ELISA of remaining Aβ1-42), KLK1 1 pg/mL, 3 hrs: 0% | % Cleavage (ELISA of remaining Aβ1-42), KLK1 1 pg/mL, 18 hrs: 0% | % Cleavage (ELISA of remaining Aβ1-42), KLK1 10 pg/mL, 3 hrs: 0% | % Cleavage (ELISA of remaining Aβ1-42), KLK1 10 pg/mL, 18 hrs: 15% | % Cleavage (ELISA of remaining Aβ1-42), KLK1 100 pg/mL, 3 hrs: 0% | % Cleavage (ELISA of remaining Aβ1-42), KLK1 100 pg/mL, 18 hrs: 19.5% | % Cleavage (ELISA of remaining Aβ1-42), KLK1 1 ng/mL, 3 hrs: 19.6% | % Cleavage (ELISA of remaining Aβ1-42), KLK1 1 ng/mL, 18 hrs: 50% | % Cleavage (ELISA of remaining Aβ1-42), KLK1 10 ng/mL, 3 hrs: 36.6% | % Cleavage (ELISA of remaining Aβ1-42), KLK1 10 ng/mL, 18 hrs: 88.4% | % Cleavage (ELISA of remaining Aβ1-42), KLK1 100 ng/mL, 3 hrs: 71.7% | % Cleavage (ELISA of remaining Aβ1-42), KLK1 100 ng/mL, 18 hrs: 99.8% | % Cleavage (ELISA of remaining Aβ1-42), KLK1 1 µg/mL, 3 hrs: 92.1% | % Cleavage (ELISA of remaining Aβ1-42), KLK1 1 µg/mL, 18 hrs: 100%
